Patent US20250115926A1, “DEREGULATED DHS AND TYRA ENZYMES OF GRASSES ENABLE EFFICIENT PRODUCTION OF BOTH TYROSINE AND PHENYLALANINE” (priority 2023, published 2025)

B1: Sorghum bicolor SbTyrA2, SEQ ID NO: 41, recombinant (Sorghum bicolor) (protein)
chain: ATGASQPLGTDSNEEVEKVEEQPQPPPRLKIAVVGFGTFGQFLARTLVAQGHTVLAHSRSDHSAAAASMGALFFSDPHDLCECHPDVVLLATSILSAESVVRSLPLHRLRRDTLFADVLSVKEFPKRLLLGLLPEEMDILCTHPMFGPESARAGWAGLPFMFDKVRVRDTVPARRARAEAFLDVFAQEGCRMVEMSCAEHDAHAAETQFLTHTVGRMLAALELRATPIDTRGYETLLRLVENTCSDSFDLYNGLFMYNNNSTELLNRLDWAMDAVKRRLFDGLHDVLRRQLFHVGEVEGEAERMEELAVVPGGGPDTDDDGCATATATSIKSGEENN
notes: from genomic DNA
B2: Sorghum bicolor SbTyrA1, SEQ ID NO: 39, recombinant (Sorghum bicolor) (protein)
chain: MLSSSTSTLRLHQPTRPHRHHPPAPAAGGATHLASPRRWRGHAPGASSPPALRARAQRIRALDAAQPFDFESRAAGLLEERQRLKIAIVGFGNFGQFLARTFARQGHTLLAHSRTDHSALASTLGASFFTDPHDLCECHPDVVLLATSILSAEAVLRSLPVHRLRRNTLFVDVLSVKEFPRNLLLSSLPPDFDVICTHPMFGPESARDGWDGLPFVFDKVRVGDCPARRARAEAFLNIFEREGCRMVEMSCAEHDAHAAETQFLTHTVGRMLAMLELRSTPINTKGYETLLRLVDNTCSDSFDLYNGLFMYNKNSTELLNRVEWAMDSVKKKLFDGLHDVLRKQLFEGSPHAPNVSSSNVRK
notes: from genomic DNA
B3: Sorghum bicolor SbTyrAnc (non-canonical TyrA), SEQ ID NO: 43, recombinant (Sorghum bicolor) (protein)
chain: ALTSPSPVEQHLQAVVPCHGISDPPAASSAAAVPAAPLRVGIVGFGNFGQFIAGGLQRQGHVVLAASRSDYSVYCASHGIRFFRSVDALCEEQPDVLLICSSILSTEGVVRAIPFRKLRHDTIVADVLSVKEFPRNLLLEVLPPGFGIICTHPMFGPESGKHGWGKLPFVFDKVRVAEDGDQAAKCDQFLSIFEQEGCRMVEMSCAEHDRYAAGSQFITHTIGRVLSQLNLKSTPINTKGYETLLQLTKNTVSDSFDLYYGLFMYNVNATEQLDKLEMAFEKVRQMLSGRLHDFIRKQIVERAAHVPADPSGKLANGLSSSPAARLL
notes: from cDNA
B4: Brachypodium distachyon BdTyrA1, SEQ ID NO: 33, recombinant (Brachypodium distachyon) (protein)
chain: MLSSSTSHLRLHQPSRAARRLPPAPAPATYQFQSPASRRSLPAPAVGARIRPNRGGTIRAIDAAQPFDYESRAAGLLEERQRLKIAIVGFGNFGQFLARTFARQGHTLLAHSRSDHSSLAASLGAAYFQDPHDLCECHPDVVLLATSILSAEAVLRSLPVHRLRRNTLFVDVLSVKEFPKNLLLTTLPEGFDIICTHPMFGPESARDGWDGLPFVFDKVRVGDCPARRARADTFLNIFEREGCRMVEMSCAEHDAHAAETQFLTHTVGRMLATLELQSTPINTKGYETLLRLVDNTCSDSFDLYNGLFMYNKNSTDLLNRLESAMDSVKKRLFDGLHDVLRKQLFEGKASPPATSSNTKSDVHRGQLLLEGKASPAPLNANNTTVRN
notes: from genomic DNA
B5: Brachypodium distachyon BdTyrA2, SEQ ID NO: 35, recombinant (Brachypodium distachyon) (protein)
chain: RATDAARQPFDHLSGAVKSEEGTHPRLKIAIVGFGNYGQFLARTMVQQGHTVLAHSRSDHSAAAATIGASFYADAHDLCECQPDVVLLSTSILSAEAVLRSLPVHRFRRSTLFADVLSVKEFPKNLLLAYLPGDFDVICTHPMFGPESARDGWAGLPFVFDEVRVGDGPARRARADAFLDVFAREGCRMVEMSCAEHDAHAAETQFLTHTVGRMLATLDLKSTPINTKGYETLLRLVDNTCSDSFDLYNGLFMYNNNATELLHRLESAMDSVKRRLFDGLHEVLRRQLFEGSPPLNRDSSFPAESSLDDGR
B6: Brachypodium distachyon BdTyrAnc (non-canonical TyrA), SEQ ID NO: 37, recombinant (Brachypodium distachyon) (protein)
chain: AEQEQKQEVAAPCRDAYEKPAVWNTTAADSAEAAPPLRVGIIGFGNFGQFIARGIQRQGHAVLATSRSDYSAYCSAQGIRYFRSLEALCEEQPNVLLVCSSILSTEAVVRAIPFHKLRSDTIVADVLSVKQFPRNLLLEILPPEFGIVCTHPMFGPESGKHGWSTLPFVYDKVRLADKGDQKANCGQFLSIFEGEGCRMVEMSCAEHDRHAAASQFITHTIGRVLAQLNLKSTPINTKGFEALLKLTENTVSDSFDLYYGLFMYNVNATEQIEKLERAFEKVKQMLYGRLHDILRKQIVERVPI
notes: from cDNA

These proteins were tested on N[C@@H](CC1(C(=O)O)C=CC(O)C=C1)C(=O)O (assay: TyrA arogenate dehydrogenase kinetics and tyrosine inhibition (340 nm)). Settings: other: NADP^+, pH 7.5, 37° C.
Type: biochemical, Sorghum bicolor
Description: (§1) Next, to study the biochemical properties of grass TyrA enzymes, we generated and characterized recombinant purified TyrA proteins from Brachypodium (BdTyrA) and Sorghum (SbTyrA), two distantly related grass species^43, 44. Whereas TyrA enzymes from dicot plants are generally NADP^+-dependent arogenate dehydrogenases^20, 39, 45, except for NADP^+-prephenate dehydrogenases in the legume family^40, 46, previous reports on the substrate preference of grass TyrA enzymes are inconclusive^17, 19. […] NAD^+-prephenate dehydrogenase activity was absent in all cases, ruling out a significant contamination of the enzyme preparations with the TyrA enzyme from E. coli^47.48.

| Protein | Km [µM] | kcat [s⁻¹] | kcat/Km [M⁻¹ s⁻¹] |
| --- | --- | --- | --- |
| B1 | 2130 ± 530 | 38.5 ± 8.8 | 18100 ± 9600 |
| B2 | 570 ± 150 | 2.9 ± 0.6 | 5300 ± 800 |
| B3 | 220 ± 60 | 73.5 ± 18.2 | 338000 ± 19500 |

Substrate: N[C@@H](CC1(C(=O)O)C=CC(O)C=C1)C(=O)O
Experiment: as above
Type: biochemical, Brachypodium distachyon
Settings: other: NADP^+, pH 7.5, 37° C.
Remark: another data set of the same source
Description: as §1

| Protein | Km [µM] | kcat [s⁻¹] | kcat/Km [M⁻¹ s⁻¹] |
| --- | --- | --- | --- |
| B4 | 1410 ± 240 | 5.2 ± 0.8 | 3600 ± 800 |
| B5 | 450 ± 40 | 18.5 ± 0.6 | 41200 ± 1700 |
| B6 | 130 ± 40 | 76.5 ± 5.5 | 580000 ± 24300 |
